Test results reported in article PMC7865483 (International Journal of Molecular Sciences, 2021).
Each block holds one binder with its values, some of them ahead of it.

Target: T1, Pank1 (pantothenate kinase 1), endogenous in A549 cells (human (endogenous in A549), UniProt Q8TE04 1-598)
T1 construct: pantothenate kinase 1, endogenous in the human lung cancer cell line A549; source: endogenous, A549 cells (fixed cells for PLA)
Assay: proximity ligation; in situ PLA (Duolink) on fixed A549 cells, endogenous proteins; cells serum-starved for 24 h, or serum-starved and then treated with 500 μM H2O2
Conditions: partners not purified

T1 sequence (Q8TE04 whole entry): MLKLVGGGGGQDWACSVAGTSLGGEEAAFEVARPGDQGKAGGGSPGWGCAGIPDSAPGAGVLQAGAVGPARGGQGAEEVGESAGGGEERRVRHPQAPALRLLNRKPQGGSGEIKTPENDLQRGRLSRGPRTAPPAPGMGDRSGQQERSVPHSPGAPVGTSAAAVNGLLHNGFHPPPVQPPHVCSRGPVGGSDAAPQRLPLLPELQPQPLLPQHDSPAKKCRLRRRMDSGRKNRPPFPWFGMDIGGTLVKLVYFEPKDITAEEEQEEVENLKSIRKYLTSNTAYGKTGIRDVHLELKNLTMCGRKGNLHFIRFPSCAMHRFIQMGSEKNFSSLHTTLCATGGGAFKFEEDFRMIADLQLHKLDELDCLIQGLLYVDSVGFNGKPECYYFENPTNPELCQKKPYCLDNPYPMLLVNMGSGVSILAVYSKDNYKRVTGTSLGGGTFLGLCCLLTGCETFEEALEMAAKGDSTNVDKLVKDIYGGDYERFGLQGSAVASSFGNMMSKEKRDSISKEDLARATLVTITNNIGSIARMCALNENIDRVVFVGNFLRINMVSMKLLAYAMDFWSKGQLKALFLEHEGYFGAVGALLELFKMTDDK

fold increase of the PLA signal after stress treatments, against control conditions: ~10 fold
B1: 4′-phosphopantothenoylcysteine synthetase (PPCS) (enzyme)
chain: not shown

fold increase of the PLA signal after 24 h serum starvation, against control cells: ~10 fold
fold increase of the PLA signal after stress treatments, against control conditions: ~10 fold
B2: CoA synthase (CoAsy) (enzyme, human (endogenous in HEK293 and A549), UniProt Q13057 1-564, looked up)
chain: MAVFRSGLLVLTTPLASLAPRLASILTSAARLVNHTLYVHLQPGMSLEGPAQPQSSPVQATFEVLDFITHLYAGADVHRHLDVRILLTNIRTKSTFLPPLPTSVQNLAHPPEVVLTDFQTLDGSQYNPVKQQLVRYATSCYSCCPRLASVLLYSDYGIGEVPVEPLDVPLPSTIRPASPVAGSPKQPVRGYYRGAVGGTFDRLHNAHKVLLSVACILAQEQLVVGVADKDLLKSKLLPELLQPYTERVEHLSEFLVDIKPSLTFDVIPLLDPYGPAGSDPSLEFLVVSEETYRGGMAINRFRLENDLEELALYQIQLLKDLRHTENEEDKVSSSSFRQRMLGNLLRPPYERPELPTCLYVIGLTGISGSGKSSIAQRLKGLGAFVIDSDHLGHRAYAPGGPAYQPVVEAFGTDILHKDGIINRKVLGSRVFGNKKQLKILTDIMWPIIAKLAREEMDRAVAEGKRVCVIDAAVLLEAGWQNLVHEVWTAVIPETEAVRRIVERDGLSEAAAQSRLQSQMSGQQLVEQSHVVLSTLWEPHITQRQVEKAWALLQKRIPKTHQALD
